Columns and labels:
H2722 = assay: rTRAIL response, viability assay, H2722; format: cell-based, Human; details: BAP1 HomDel, homozygous
Protocol: (§1) Manual “single dose” combination screening was undertaken using 96 well formats. Cells were plated on day 1 in previously optimized seeding densities in 180 μl if media. On day 2 20 μl of a 10× concentration of […] was added. Cells were then allowed to grow for 72 hrs or 6 days and fixed at the end of the assay. Drug wells were compared to DMSO treated control wells.
(§2) Single agent high throughput 5 point viability screening was undertaken in 384 well formats using robotic liquid handling with fixing with 4% paraformaldehyde and staining for viability with Syto60 nucleic acid dye (Invitrogen) (see below). Single agent dose response curves were derived for each library of 85-95 drugs according to the experiment used, and log IC50 or area under the curve (AUC) metrics were derived for each library compound in each cell line according to a previously derived formula [18].
(§3) Adherent cell lines were seeded 24 hours before drugging. Cells were trypsinised and counted before seeding at the optimal density for the size of well (96 or 384) and duration of assay. 72 hr after drug treatment cells were fixed with 4% paraformaldehyde for 30 minutes. […] Quantification of fluorescent signal was achieved using excitation/emission wavelength of 630/695 […].

H2804 = assay: rTRAIL response, viability assay, H2804; format: cell-based, Human; details: BAP1 Essential Splice, heterozygous
Protocol: as §1, §2, §3

H2369 = assay: rTRAIL response, viability assay, H2369; format: cell-based, Human; details: BAP1 Wild-type
Protocol: as §1, §2, §3

H2818 = assay: rTRAIL response, viability assay, H2818; format: cell-based, Human; details: BAP1 Wild-type
Protocol: as §1, §2, §3

H2869 = assay: rTRAIL response, viability assay, H2869; format: cell-based, Human; details: BAP1 Wild-type
Protocol: as §1, §2, §3

MPP-89 = assay: rTRAIL response, viability assay, MPP-89; format: cell-based, Human; details: BAP1 Wild-type
Protocol: as §1, §2, §3

NCI-H2052 = assay: rTRAIL response, viability assay, NCI-H2052; format: cell-based, Human; details: BAP1 Wild-type
Protocol: as §1, §2, §3

NCI-H226 = assay: Annexin V/DAPI cell death assay, H226 parental and BAP1-transduced lines; format: cell-based, Human
Protocol: FIG. 5A is an immunoblot for BAP1 protein in BAP1 null mesothelioma lines following transfection with empty vector and BAP1 expression vector. […] FIG. 5C is a graph showing the effect of rTRAIL on cell viability of an untransduced H226 cell line, a BAP1 (transduced) cell line, and a H226 cell line with the NLS deleted.
Untransduced BAP1-negative H226 cells, BAP1-expressing and catalytically dead BAP1-expressing H226 cells were treated with 100 ng/ml of FASL, TRAIL and TNF-alpha for 24 hours and cell death was quantified by Annexin V/DAPI assay. *p<0.05 indicating significant difference between untransduced H226 cells H226 BAP1 expressing cells. NS no significant difference between untransduced H226 cells and BAP1 C91A transduced cells. #p<0.05 indicating significant difference between untransduced H226 cells and BAP1 C91A transduced cells.
Adherent mesothelioma cell lines were plated in a 96 well plate at approximately 10000 cells per well. Cells were plated and given 1 day to adhere at which time drug was added. After 48 hrs media, including floating cells, was collected from each well. The remaining adherent cells were washed with PBS and mobilised with 0.05% trypsin in EDTA. All cells were collected into tubes containing the previously removed media and pelleted by centrifugation (300 g, 5 minutes). Cells were then re-suspended in 1× Annexin V binding buffer with 10 μl/1 ml concentration of Annexin V-647 antibody (Invitrogen) and incubated for 15 minutes at room temperature. DAPI ([…]) was then added to each sample before flow cytometry analysis as below. Annexin V−/DAPI− cells were judged to be viable, AnnexinV+/DAPI− cells were considered to be undergoing apoptosis (early apoptotic phase), and Annexin V+/DAPI+ cells were considered late apoptotic or necrotic, and recorded as dead.

769P = assay: rTRAIL viability, renal cell cancer cell line 769P; format: cell-based; details: 769P renal; BAP1 missense mutation
Description: FIG. 8A is a graph showing the effect of rTRAIL on the viability of various cancer cell lines. Bladder (RT4) and Breast (HCC1187) cancer cell lines with nonsense mutations in BAP1 show sensitivity to rTRAIL while renal cell cancer cell lines (769P & RCC10RGB) with missense mutation and wild-type renal (BB65RCC) and bladder cancer (SW1710) cell lines are resistant to TRAIL.

[1] = tested on: mutated BAP1 xenografts (H226 C91A); assay: Xenograft mouse model, H226 BAP1 and H226 C91A tumours; format: in vivo, mice
Description: FIG. 9A is a protocol of an in vivo experiment. FIG. 9B is a box plot showing the weight of tumours extracted from mice injected with mutant or wild-type BAP1-expressing cells after treatment with rTRAIL. […] FIG. 9C is a graph showing that TRAIL treatment reduces the tumour burden (measured by bioluminescence) of mutated BAP1 xenografts when compared to TRAIL treated wild-type BAP1 xenografts or untreated BAP1 mutated and BAP1 wild-type xenografts.
Groups of 8 week old NOD.CB17-Prkdcscid/NcrCrl (NOD SCID) mice (Charles River) were injected on each flank with 1 million cells of luciferase transduced mesothelioma cell lines (H226 BAP and H226 C91A) in a 1:1 mixture of matrigel and media. When tumours were established, as assessed by bioluminescent imaging (IVIS), at 14 days following injection of tumour cells, treatment was began with either vehicle or isoleucine zipper TRAIL (izTRAIL). Either vehicle or izTRAIL were given intraperitoneally once daily at a dose of 600 mcg for the duration of the experiment. Tumour size was assessed at days 0, 13, 19, 26 and 41 using bioluminescent imaging (IVIS). Mice were culled at 42 days and tumours removed and weighed. Six mice per group were treated. Researchers were not blinded in these experiments.

B1: rTRAIL: recombinant protein that activates the TRAIL pathway by binding to TRAIL-R1 (DR 4) and TRAIL-R2 (DR 5) (protein, UniProt P50591 1-281, looked up)
Tumor necrosis factor ligand …: MAMMEVQGGPSLGQTCVLIVIFTVLLQSLCVAVTYVYFTNELKQMQDKYSKSGIACFLKEDDSYWDPNDEESMNSPCWQVKWQLRQLVRKMILRTSEETISTVQEKQQNISPLVRERGPQRVAAHITGTRGRSNTLSSPNSKNEKALGRKINSWESSRSGHSFLSNLHLRNGELVIHEKGFYYIYSQTYFRFQEEIKENTKNDKQMVQYIYKYTSYPDPILLMKSARNSCWSKDAEYGLYSIYQGGIFELKENDRIFVSVTNEHLIDMDHEASFFGAFLVG
rTRAIL response (H2722): Resistant
rTRAIL response (H2804): Sensitive
rTRAIL response (H2369): Resistant
rTRAIL response (H2818): Resistant
rTRAIL response (H2869): Resistant
rTRAIL response (MPP-89): Resistant
rTRAIL response (NCI-H2052): Resistant
sensitivity of H226 cells to cell death-inducing ligand, dependence on BAP1 catalytic domain (NCI-H226; 100 ng/ml, 24 hours, untransduced, BAP1-expressing and catalytically dead BAP1-expressing H226): regulates the sensitivity
cell death relative to BAP1 null line (NCI-H226; BAP1 expressing H226 cell line, dose range of TRAIL): significantly reduced
cell death (NCI-H226; BAP1 null NCI-H226, dose range of TRAIL): increased cell death
response to TRAIL (viability) (769P): resistant
tumour weight at end of experiment ([1]; mutated BAP1 tumours vs wild-type BAP1 tumours with TRAIL or vehicle-treated tumours, intraperitoneally once daily 600 mcg): significantly less
tumour burden (bioluminescence) ([1]; mutated BAP1 xenografts vs wild-type with TRAIL or vehicle-treated xenografts, tracked over 4 weeks): significantly less
